Substrate in data set [1]: O=c1c(O)c(-c2ccc(O)c(O)c2)oc2cc(O)cc(O)c12
The data set can be described thus: HPLC of glucoside product, initial rates, Lineweaver-Burk. Particulars: apparent Km, 10 mM UDP-glucose, 100 mM potassium phosphate pH 8.0, 30°C, 2 min. Format: biochemical, Freesia hybrid cultivar.

Substrate in data set [2]: Oc1cc(O)c2cc(O)c(-c3cc(O)c(O)c(O)c3)[o+]c2c1
Described as above. Format: biochemical, Freesia hybrid cultivar. Particulars: apparent Km, 10 mM UDP-glucose, 100 mM potassium phosphate pH 8.0, 30°C, 2 min.

B1: Fh3GT1 (Freesia hybrid cultivar) (protein)
chain: MGSADRSHVALLAFPFGTHAAPLLSLGLNLASSAPHGTTFSFLSNRRPVSLPPNSAIKFYEIADGSDPEHEGHVHPEEEVRVFMEETPGNYKKALEAAVDRCGGQRVTCIVADAFLWFVGDIAAEFGVHWVPLWTGGPCSFLAHLYTDMLRNKIGTGKEADPDEDLQFLPGLSGFRVRDLPDDIVTGDLTGAFASLLHRMSIEIPRSAAAIAINTFEGLHPDIDADLASKFKKSLPIGPLNLLNPTLNQPDRFSCLAWLDKFEPHSVAYVSFGTLAALTEAELVELASGLEQSGVPFLWSLKEPGQLPAGFLDRTKDRGLVVPWVPQAEALKHVAVGASLSHCGWNSVMESVTSGVPMLCRPFLGDQTMNARAVSHVWKVGVTFENGTMTRANVAEAMKKVVVGEEGRKMRERAAAIREMAAGSVRPGGSSVQNFKALLDIVIAR
notes: full-length ORF, pET-28a(+), N-terminal His tag, E. coli BL21(DE3), Ni Sepharose purified; cDNA described in Sui et al. 2011; Asn-244 (NPTL) and Asn-386 (NGTM)
As for B1, in data set [1], the Michaelis constant (Km) came out at 98.47 ± 4.96 µM, the kcat came to 4.59 ± 0.035 s⁻¹ and the kcat/Km stood at 48500 M⁻¹ s⁻¹. Also, in data set [2], the Km was 58.88 ± 1.68 µM, the kcat stood at 0.53 ± 0.01 s⁻¹ and the kcat/Km worked out at 9060 M⁻¹ s⁻¹.

The record behind these values is publication PMC4815329, “Biochemical and Molecular Characterization of a Flavonoid 3-O-glycosyltransferase Responsible for Anthocyanins and Flavonols Biosynthesis in Freesia hybrida” (Frontiers in Plant Science, 2016).
